For assay [1], the target named is T1, recombinant hSIRPa (Sino Biologicals, reference 11612-H08H) (human, UniProt P78324 31-370).
T1 construct: also called SIRPa-His; human SIRPa-His; not shown: His tag (histidine tail)
Put plainly: ELISA on immobilized hSIRPa-His, anti-human IgG detection, first experiment; first experiment. As to the method:
(§1) Method: The binding activity of the anti-SIRPa antibodies was assessed by ELISA.
For orientation: An ELISA detects its analyte on a solid surface through an enzyme-linked reagent.

Assay [2] concerns the target T2, recombinant hSIRPb-His (Antibodies-online, reference ABIN3077231) (human, UniProt Q5TFQ8 30-371).
T2 construct: also called SIRPb-His (Blitz); not shown: His tag
Put plainly: BLI (Blitz); SIRPb-His on Ni-NTA biosensor, antibody at 20 ug/ml [B, table A]. As to the method:
FIG. 7. (A) Affinity analysis by Blitz of anti-SIRP antibodies on human SIRPb recombinant protein. SIRPb-His recombinant protein was immobilized onto a NINTA biosensor and the indicated antibodies were added at 20 μg/ml. […] (B) Binding analysis of anti-SIRP antibodies (human SIRPb-His coating and anti-human kappa detection).
(§2) Method: This method was performed with a Blitz (Forte Bio; USA; reference C22-2 No 61010-1). Recombinant hSIRPb-His (Antibodies-online; USA; reference ABIN3077231) was immobilized at 10 μg/ml by histidine tail into a Ni-NTA biosensor (Forte Bio; USA; reference 18-0029) for 30 seconds. Then, an anti-SIRPa antibody was associated at 20 μg/mL for 120 seconds. The dissociation of anti-SIRPa antibody was made in kinetics buffer for 120 seconds. Analysis of data was made with the Blitz pro 1.2 software, which calculated association constant (ka) and dissociation constant (kd) and determined the affinity constant KD […].

In assay [3] the target is T1, recombinant hSIRPa (Sino Biologicals, …). Put plainly: competition ELISA on immobilized SIRPa-His; competitor biotinylated CD47-Fc at 6 ug/ml, streptavidin-peroxidase [second experiment table]. As to the method:
(§3) Method: For competitive ELISA assay, recombinant hSIRPa (Sino Biologicals, Beijing, China; reference 11612-H08H) was immobilized on plastic at 0.5 μg/ml in carbonate buffer (pH9.2).

The target is the same in assay [4]. Kind of assay: ELISA on immobilized SIRPa-His, peroxidase anti-human IgG, DO 450nm [all panels]. The procedure: (§4) Method: For ELISA assay, recombinant hSIRPa (Sino Biologicals, Beijing, China; reference 11612-H08H) was immobilized on plastic at 0.5 μg/ml in carbonate buffer (pH9.2) and different modified anti-SIRPa antibodies were added to measure binding to SIRPa.

Assay [5] has the same target. Put plainly: SPR (Biacore); SIRPa-His immobilized on CM5 chip, antibody injected. The procedure:
FIG. 2. Affinity analysis by Biacore of anti-SIRP antibodies on human SIRPa recombinant protein. SIRPa-His recombinant protein was immobilized onto a CM5 chip at 5 μg/ml (500 RU) and the indicated antibodies were added at different concentration.
Method: Recombinant hSIRPa (Sino Biologicals, Beijing, China; reference 11612-H08H) was immobilized into a CM5 sensor chip (GeHealthcare; France) at 5 μg/ml (500 RU) and antibodies were applied at different concentrations with a flow rate of 40 μl/min. Analysis was performed with a BIAcore 3000 (Biacore, GeHealthcare).
On the technique in general: SPR reads the build-up and loss of mass on a sensor chip optically.

Assay [6] deals with T3, PDL1Fc (human, UniProt Q9NZQ7 19-238).
T3 construct: not shown: Fc; not specified
Kind of assay: ELISA: modified antibody (concentration on the axis) captured on SIRPa-His, then PDL1Fc, detected with mouse anti-human PDL1 [panel PD1]. The text has this: (§5) FIG. 24. Ligand binding assay with the different modified anti-SIRPa antibodies by ELISA.

The target of assay [7] is T1, recombinant hSIRPa (Sino Biologicals, …). Put plainly: competition ELISA on coated SIRPa-His; competitor biotinylated CD47-Fc at 6 ug/ml, streptavidin-peroxidase [panel PD1]. The procedure:
as §3

Assay [8] shares this target. Put plainly: ELISA on immobilized SIRPa-His, peroxidase anti-human IgG, DO 450nm [panel PD1]. The procedure: as §4
Assay [9] shares this target. Kind of assay: ELISA on immobilized hSIRPa-His, anti-human IgG detection, third experiment. As to the method:
as §1

The target of assay [10] is T4, recombinant hSIRPg-His (Sino Biologicals, reference 11828-H08H) (human, UniProt Q9P1W8 29-360).
T4 construct: also called human SIRPg-His; not shown: His tag
Kind of assay: BLI (Blitz); SIRPg-His on Ni-NTA biosensor, antibody at 10 ug/ml or 20 ug/ml (Example 9) [B, table A]. The procedure:
FIG. 8. (A) Affinity analysis by Blitz of anti-SIRP antibodies on human SIRPg recombinant protein. SIRPg-His recombinant protein was immobilized onto a NINTA biosensor and the indicated antibodies were added at 10 μg/ml. […] (B) Binding analysis by ELISA assay of anti-SIRP antibodies on SIRPg (human SIRPg-His coating and anti-human kappa detection).
as §2, with “hSIRPg-His (Sino Biologicals, Beijing, China;” for “hSIRPb-His (Antibodies-online; USA;”, “11828-H08H)” for “ABIN3077231)”

For assay [11], the target named is T1, recombinant hSIRPa (Sino Biologicals, …). Put plainly: ELISA on immobilized hSIRPa-His, anti-human IgG detection, second experiment; second experiment. The procedure:
as §1

In assay [12] the target is T5, CD28Fc (human, UniProt P10747 19-152, limits assumed).
T5 construct: not shown: Fc; not specified
Put plainly: ELISA: modified antibody (concentration on the axis) captured on SIRPa-His, then CD28Fc, detected with mouse anti-human CD28 [panel ICOSL].
From the text: as §5

Assay [13] has as its target T1, recombinant hSIRPa (Sino Biologicals, …). Put plainly: ELISA on immobilized SIRPa-His, peroxidase anti-human IgG, DO 450nm [panel ICOSL]. The procedure: as §4
The target of assay [14] is T6, 4-1BBFcHis (UniProt Q07011 24-186).
T6 construct: not shown: Fc and His tag; not specified
Put plainly: ELISA: modified antibody (concentration on the axis) captured on SIRPa-His, then 4-1BBFcHis, detected with mouse anti-His [panel 4-1BBL].
From the text: as §5

Assay [15] has as its target T1, recombinant hSIRPa (Sino Biologicals, …). Kind of assay: ELISA on immobilized SIRPa-His, peroxidase anti-human IgG, DO 450nm [panel 4-1BBL]. The procedure: as §4
Assay [16] shares this target. Kind of assay: ELISA on immobilized SIRPa-His, anti-human detection, DO 450nm [B,C, panel B table].

B1: HEFLB (antibody, human IgG4 S228P, kappa)
heavy: not shown
light: DVVMTQSPLSLPVTLGQPASISCRSSQSLVHSYGNTYLYWFQQRPGQSPRLLIYRVSNRFSGVPDRFSGSGSGTDFTLKISRVEAEDVGVYYCFQGTHVPYTFGGGTKVEIKRTVAAPSVFIFPPSDEQLKSGTASVVCLLNNFYPREAKVQWKVDNALQSGNSQESVTEQDSKDSTYSLSSTLTLSKADYEKHKVYACEVTHQGLSSPVTKSFNRGEC
notes: humanized 18D5 variant; IgG4m (S228P) / kappa; also called anti-SIRPa HEFLB
In general, EC50 refers to the concentration needed to bring the measured effect to its halfway point. Broadly, the Kd is the constant that tells how readily two partners part at equilibrium. As a reminder, the koff is a measure of how fast the partners let go of each other. For orientation: kon means the second-order rate constant of association. The term IC50 denotes the concentration that gives 50% inhibition. What is called EC50 (read off the curve) is the midpoint of the concentration-response curve. As for B1, the EC50 in assay [1] came out at 4.4 ng/mL. In assay [2], the Kd was determined as 86.9 nM, the koff is 0.00171 s⁻¹ and the on-rate constant (kon) turned out to be 19400 M⁻¹ s⁻¹. Moreover, the IC50 in assay [3] amounted to 186 ng/mL. For the same molecule, the “EC50 (read off the curve)” value in assay [4] is approximately 10 ng/mL. Besides, in [5], the Kd amounted to 0.289 nM, the koff came out at 0.000189 s⁻¹ and the kon is 654000 M⁻¹ s⁻¹.

B2: modified anti-SIRPa HEFLB antibody with ECD of PD1 on the heavy chain (antibody, human IgG4 S228P, kappa)
heavy: not shown
light: DVVMTQSPLSLPVTLGQPASISCRSSQSLVHSYGNTYLYWFQQRPGQSPRLLIYRVSNRFSGVPDRFSGSGSGTDFTLKISRVEAEDVGVYYCFQGTHVPYTFGGGTKVEIKRTVAAPSVFIFPPSDEQLKSGTASVVCLLNNFYPREAKVQWKVDNALQSGNSQESVTEQDSKDSTYSLSSTLTLSKADYEKHKVYACEVTHQGLSSPVTKSFNRGEC
notes: also called VHprot+VL (PD1); HEF-PD1 + LB
For B2, in assay [6], the binding result is “binds”. Also, in assay [7], the “IC50 (read off the curve)” value was approximately 200 ng/mL. Also, in assay [8], the concentration for a half-maximal effect (EC50 (read off the curve)) was approximately 8 ng/mL.

B3: chimeric mouse/human 18D5 antibody (antibody, human IgG4 S228P, kappa)
heavy: not shown
light: DVVMTQTPLSLPVSLGDQASISCRSSQSLVHSYGNTYLYWYLQKPGQSPKLLIYRVSNRFSGVPDRFSGSGSGTDFTLKISRVEAEDLGVYFCFQGTHVPYTFGSGTKLEIKRTVAAPSVFIFPPSDEQLKSGTASVVCLLNNFYPREAKVQWKVDNALQSGNSQESVTEQDSKDSTYSLSSTLTLSKADYEKHKVYACEVTHQGLSSPVTKSFNRGEC
notes: mouse variable domains on human IgG4m (S228P) / kappa constant domains; also called chimeric antibody; chimeric 18D5
As to B3, the EC50 in assay [1] came to 2.9 ng/mL; in assay [9] it was 2.74 ng/mL; in assay [11], 4.06 ng/mL. Further, the values for the Kd in [10], in assay [2] and in assay [5] were 64.8 nM, 15.7 nM and 0.344 nM, respectively. Besides, the koff in [10] is 0.00319 s⁻¹; in assay [2], 0.00138 s⁻¹; in assay [5] it was 5.14e-05 s⁻¹. For the same molecule, the kon in assay [10] was found to be 49300 M⁻¹ s⁻¹; in assay [2], 88400 M⁻¹ s⁻¹; in assay [5], 149000 M⁻¹ s⁻¹. In addition, the IC50 in [3] was 304 ng/mL.

B4: modified anti-SIRPa HEFLB antibody with ECD of ICOSL on the light chain (antibody, human IgG4 S228P, kappa)
heavy: not shown
light: DVVMTQSPLSLPVTLGQPASISCRSSQSLVHSYGNTYLYWFQQRPGQSPRLLIYRVSNRFSGVPDRFSGSGSGTDFTLKISRVEAEDVGVYYCFQGTHVPYTFGGGTKVEIKRTVAAPSVFIFPPSDEQLKSGTASVVCLLNNFYPREAKVQWKVDNALQSGNSQESVTEQDSKDSTYSLSSTLTLSKADYEKHKVYACEVTHQGLSSPVTKSFNRGECGGGGSGGGGSGGGGSDTQEKEVRAMVGSDVELSCACPEGSRFDLNDVYVYWQTSESKTVVTYHIPQNSSLENVDSRYRNRALMSPAGMLRGDFSLRLFNVTPQDEQKFHCLVLSQSLGFQEVLSVEVTLHVAANFSVPVVSAPHSPSQDELTFTCTSINGYPRPNVYWINKTDNSLLDQALQNDTVFLNMRGLYDVVSVLRIARTPSVNIGCCIENVLLQQNLTVGSQTGNDIGERDKITENPVSTGEKNAAT
notes: as m32, ECD of ICOSL; also called VH+VLprot (ICOSL); HEF + LB-ICOSL
For the molecule B4, in [12], the binding result is listed as “binds”. For the same molecule, in [13], the “EC50 (read off the curve)” value was approximately 6 ng/mL.

B5: modified anti-SIRPa HEFLB antibody with ECD of 4-1BBL on the light chain (antibody, human IgG4 S228P, kappa)
heavy: not shown
light: DVVMTQSPLSLPVTLGQPASISCRSSQSLVHSYGNTYLYWFQQRPGQSPRLLIYRVSNRFSGVPDRFSGSGSGTDFTLKISRVEAEDVGVYYCFQGTHVPYTFGGGTKVEIKRTVAAPSVFIFPPSDEQLKSGTASVVCLLNNFYPREAKVQWKVDNALQSGNSQESVTEQDSKDSTYSLSSTLTLSKADYEKHKVYACEVTHQGLSSPVTKSFNRGECGGGGSGGGGSGGGGSREGPELSPDDPAGLLDLRQGMFAQLVAQNVLLIDGPLSWYSDPGLAGVSLTGGLSYKEDTKELVVAKAGVYYVFFQLELRRVVAGEGSGSVSLALHLQPLRSAAGAAALALTVDLPPASSEARNSAFGFQGRLLHLSAGQRLGVHLHTEARARHAWQLTQGATVLGLFRVTPEIPAGLPSPRSE
notes: as m32, ECD of 4-1BBL; also called VH+VLprot (4-1BBL); HEF + LB-4-1BBL
As for B5, the “EC50 (read off the curve)” value in assay [14] was approximately 200 ng/mL; in [15], approximately 7 ng/mL.

B6: HELA (antibody, V domains shown)
VH: EVQLVQSGAEVKKPGESLRISCKASGYSFTSYWVHWVRQMPGKGLEWMGNIDPSDSDTHYSPSFQGHVTLSVDKSISTAYLQLSSLKASDTAMYYCVRGGTGTLAWFAYWGQGTLVTVSS
VL: DVVMTQSPLSLPVTLGQPASISCRSSQSLVHSYGNTYLYWYQQRPGQSPRLLIYRVSNRFSGVPDRFSGSGSGTDFTLKISRVEAEDVGVYFCFQGTHVPYTFGGGTKVEIK
notes: also called humanized 18D5 variant HELA
On to B6, for which, in assay [16], the EC50 was found to be 4.61 ng/mL.

The record behind these values is patent US20210179728A1 (OSE IMMUNOTHERAPEUTICS, published 2021).
